According to US20090155205A1:

Tests used:
[1] = biological target: recombinant human TNFα (rhTNFα) (human) (UniProt P01375); test: SPR BIAcore, biotin-rhTNFα immobilized, Ab 50 nM
[2] = biological target: recombinant human TNFα (rhTNFα) (human) (UniProt P01375); test: SPR BIAcore, biotin-rhTNFα immobilized, Ab 3 nM
[3] = biological target: recombinant human TNFα (rhTNFα) (human) (UniProt P01375); test: SPR BIAcore, biotin-rhTNFα immobilized, Ab 400 nM
[4] = biological target: recombinant human TNFα (rhTNFα) (human) (UniProt P01375); test: SPR BIAcore, biotin-rhTNFα immobilized, Ab 200 nM
[5] = biological target: recombinant human TNFα (rhTNFα) (human) (UniProt P01375); test: SPR BIAcore, biotin-rhTNFα immobilized, Ab 13 nM
[6] = biological target: recombinant human TNFα (rhTNFα) (human) (UniProt P01375); test: cell-based or functional assay
[7] = biological target: recombinant human TNFα (rhTNFα) (human) (UniProt P01375); test: SPR BIAcore, biotin-rhTNFα immobilized, average of the series
[8] = biological target: recombinant human TNFα (rhTNFα) (human) (UniProt P01375); test: SPR BIAcore, biotin-rhTNFα immobilized, Ab 100 nM
[9] = biological target: recombinant human TNFα (rhTNFα) (human) (UniProt P01375); test: SPR BIAcore, biotin-rhTNFα immobilized, Ab 25 nM
[10] = biological target: recombinant human TNFα (rhTNFα) (human) (UniProt P01375); test: SPR BIAcore, biotin-rhTNFα immobilized, Ab 6 nM
[11] = biological target: recombinant human TNFα (rhTNFα) (human) (UniProt P01375); test: SPR BIAcore, summary table

Sequence of recombinant human TNFα (rhTNFα) (human) (P01375 77-233 limits assumed): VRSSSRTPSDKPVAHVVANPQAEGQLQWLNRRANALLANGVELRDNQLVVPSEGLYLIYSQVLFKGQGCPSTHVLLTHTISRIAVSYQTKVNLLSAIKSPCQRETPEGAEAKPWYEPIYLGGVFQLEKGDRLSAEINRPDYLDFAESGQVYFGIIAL

MAK 195 F(ab′)2
Ab, bound, RUs [1]: 1110 RUs
koff [1]: 3.67e-05 s⁻¹
rhTNFα/Ab [1]: 1.32
Ab, bound, RUs [2]: 231 RUs
koff [2]: 6.95e-05 s⁻¹
rhTNFα/Ab [2]: 0.26
Ab, bound, RUs [3]: 881 RUs
koff [3]: 5.38e-05 s⁻¹
rhTNFα/Ab [3]: 1.2
Ab, bound, RUs [4]: 1080 RUs
koff [4]: 4.54e-05 s⁻¹
rhTNFα/Ab [4]: 1.38
Ab, bound, RUs [5]: 708 RUs
koff [5]: 3.66e-05 s⁻¹
rhTNFα/Ab [5]: 0.78
IC50, neutralization of TNFα-induced L929 cytotoxicity [6]: 0.062 nM
koff [7]: 4.94e-05 s⁻¹
Ab, bound, RUs [8]: 1140 RUs
koff [8]: 3.54e-05 s⁻¹
rhTNFα/Ab [8]: 1.39
Ab, bound, RUs [9]: 957 RUs
koff [9]: 4.41e-05 s⁻¹
rhTNFα/Ab [9]: 1.09
Ab, bound, RUs [10]: 433 RUs
koff [10]: 7.37e-05 s⁻¹
rhTNFα/Ab [10]: 0.47
Kd [11]: 0.46 nM
Stoichiometry [11]: 1.4
koff [11]: 8.7e-05 s⁻¹
kon [11]: 190000 M⁻¹ s⁻¹
